Data reported in doi:10.1101/2020.10.28.358481.
Numbering of substitutions follows the chain as printed.

B1: scaffold 1 (RMP at -3) (structured_RNA)
RNA 1: UUUUCAUGCAUCGCGUAGGCUCAUACCGUAUUGAGACCUUUUGGUCUCAAUACGGUA
RNA 2: UGAGCCUACGCGAUG
modifications: strand 2 position 13 (written A) is remdesivir monophosphate (RMP, 1'-cyano)
B2: scaffold 2 (RMP at -4) (structured_RNA)
RNA 1: B1 RNA 1 with U11C, C12U
RNA 2: UGAGCCUACGCAGUG
modifications: strand 2 position 12 (written A) is remdesivir monophosphate (RMP, 1'-cyano); oligo R-4

Target: nsp12 (RdRp catalytic subunit);nsp8;nsp7 (SARS-CoV-2;SARS-CoV-2;SARS-CoV-2, UniProt P0DTD1;P0DTD1;P0DTD1 4393-5324;3943-4140;3860-3942, ||)
Experiment: cryo-EM

Binder	binding result
B1	binds
B2	binds
